This is an account of results in patent US20100291682, “SYSTEM FOR TRANSPOSING HYPERACTIVE RECOMBINANT DERIVATIVES OF MOS-1 TRANSPOSON” (published 2010).

The series concerns the target T1, Mos-1 transposase FETY (Drosophila mauritiana, UniProt Q7JQ07 SEQ:1-345, F53Y,E137K,T216A,Y237C).
T1 sequence: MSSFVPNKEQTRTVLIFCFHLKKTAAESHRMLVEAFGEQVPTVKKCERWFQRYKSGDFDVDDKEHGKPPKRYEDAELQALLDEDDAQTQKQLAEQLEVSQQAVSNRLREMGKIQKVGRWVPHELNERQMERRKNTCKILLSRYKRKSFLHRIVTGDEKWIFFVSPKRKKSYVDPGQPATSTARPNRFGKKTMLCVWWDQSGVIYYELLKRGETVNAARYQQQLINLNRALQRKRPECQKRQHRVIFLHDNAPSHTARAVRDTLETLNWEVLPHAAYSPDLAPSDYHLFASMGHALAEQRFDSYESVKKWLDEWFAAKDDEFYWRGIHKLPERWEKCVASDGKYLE
The series is described as follows: cell_activity; 3T46 transposition in E. coli T5 vs 3T3/WT. The settings on record: chain copies: 2. How it is done:
Escherichia coli JM109 bacteria were co-transformed with the pBC 3T3 plasmid (comprising a transposition reporter 2 ITR 3′ mariner-like element and the chloramphenicol resistance gene) and with the inducible vector encoding for the transposase (pKK-Tnp or pMal-Tnp) comprising the ampicillin resistance gene. The bacteria selection was performed on ampicillin (100 μg/ml) and chloramphenicol in order to verify the presence of the two plasmids.
The JM109 bacteria containing both the pBC 3T3 plasmid and the pKK-Tnp (or pMalC2X-Tnp) plasmid were placed in culture for 1 hr at 37° C. in 250 μl of LB. This inoculum was then poured into 5 ml of LB supplemented with 1 mM IPTG. The culture was titrated on LB plates (100 μl of a 1/1000 dilution) and on LB-Tet plates (12.5 μg/ml) (250 μl of the non-diluted culture). The culture induced by IPTG was then cultured for 5 hours at 32° C. (optimal temperature of transposase) under stirring (250 rpm). The bacterial suspension was then titrated on LB plates (100 μl of a 1/250,000 dilution) and on LB-tet plates (100 μl of the undiluted bacterial suspension). The plates were placed at 37° C. overnight. The following day, the colonies were counted on LB and LB-Tet plates, and the transposition frequency (equal to the number of tetracycline bacteria over the number of bacterial per 1 ml of undiluted bacterial suspension) was calculated.
In order to evaluate the transposition efficiency of systems associating a hyperactive transposase and a pseudo-transposon that is also hyperactive, various combinations were tested in the transposition test in bacteria described in part I, paragraph I-B above.

B1: ITR46 (dsDNA)
DNA 1: TCAGGTGTACAAGTATGAGATGTCGTTT
DNA 2: AAACGACATCTCATACTTGTACACCTGA
As to B1, the activity was 2 fold.
